Assay results from US20240168030A1, “DIRECT FLUORESCENT GLYCAN LABELING” (BIO-TECHNE CORPORATION, priority 2019, published 2024).

Assays:
Type in all cases: biochemical
ST3Gal1 = target: T1, ST3Gal1 (Homo sapiens, UniProt Q11201); assay: Direct fluorescent glycan labeling (DFGL) with fluorophore-conjugated sialic acid by ST3Gal1; settings: for Lower limit of detection of acceptor protein labeled by ST3Gal1: 0.2 nmol CMP-Cy5-SA, fluorescent imaging of SDS-PAGE
T1 construct: purchased R&D Systems (Bio-Techne, Minneapolis, MN)
T1 sequence (Q11201 1-340): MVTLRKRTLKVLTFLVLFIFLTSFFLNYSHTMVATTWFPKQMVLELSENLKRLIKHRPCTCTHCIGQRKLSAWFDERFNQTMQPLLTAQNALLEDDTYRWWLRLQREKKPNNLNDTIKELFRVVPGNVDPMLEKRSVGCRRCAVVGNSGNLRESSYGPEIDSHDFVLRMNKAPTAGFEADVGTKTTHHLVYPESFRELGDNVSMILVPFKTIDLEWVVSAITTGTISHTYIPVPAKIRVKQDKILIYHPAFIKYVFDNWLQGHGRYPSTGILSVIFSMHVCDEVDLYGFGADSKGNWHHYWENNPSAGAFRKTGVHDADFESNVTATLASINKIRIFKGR

ST6Gal1 = target: T2, ST6Gal1 (Homo sapiens, UniProt P15907); assay: DFGL with fluorophore-conjugated sialic acid by ST6Gal1; settings: for Lower limit of detection of acceptor protein labeled by ST6Gal1: 0.2 nmol CMP-Cy5-SA, fluorescent imaging of SDS-PAGE
T2 construct: purchased R&D Systems (Bio-Techne, Minneapolis, MN)
T2 sequence (P15907 1-406): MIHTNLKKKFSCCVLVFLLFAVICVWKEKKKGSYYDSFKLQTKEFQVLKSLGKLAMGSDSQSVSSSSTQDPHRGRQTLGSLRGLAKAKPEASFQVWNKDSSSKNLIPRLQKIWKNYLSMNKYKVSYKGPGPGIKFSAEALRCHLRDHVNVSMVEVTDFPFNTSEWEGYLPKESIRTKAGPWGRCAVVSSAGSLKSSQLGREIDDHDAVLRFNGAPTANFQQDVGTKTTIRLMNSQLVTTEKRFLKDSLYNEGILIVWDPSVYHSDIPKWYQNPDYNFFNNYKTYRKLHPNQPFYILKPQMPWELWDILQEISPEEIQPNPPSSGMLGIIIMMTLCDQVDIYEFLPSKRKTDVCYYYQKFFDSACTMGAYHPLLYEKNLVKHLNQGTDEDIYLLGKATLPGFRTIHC

[1] = tested on: fetal bovine fetuin and asialofetuin; assay: Labeling of fetuin and asialofetuin by sialyltransferases with CMP-f-SA; settings: CMP-f-SA donors, FIG. 2
[2] = Enzymatic synthesis of Le^x and sLe^x by glycan gel electrophoresis, substrate G2
Description: FIG. 21A. Schematic view of the enzymatic steps for Le^X and sLe^X synthesis on the antibody glycan G0. The glycan short names follow that of FIG. 10. FIG. 21B Kinetic comparison of galactosylation on G0 by B4GalT1, sialyation on G2 by ST3Gal4 and ST6Gal1, and fucosylation on A2[3] by FUT7. The reaction time for B4GalT1 was 10 minutes. The reaction time for ST3Gal4, FUT7 and ST6Gal1 was 5 hours. In each case, the labeling enzyme was subject to a 3-fold serial dilution starting from 1 μg each of B4GalT1, FUT7 and ST6Gal1, and 3 μg ST3Gal4. FIG. 21C. […] Reaction time for both cases was 20 minutes. […] FIG. 21D. […] Reaction time for both cases was 20 minutes.
For a typical labeling reaction, 1 μg to 5 μg target protein was mixed with 0.2 nmol fluorophore-conjugated GDP-fucose and 0.2 μg of a fucosyltransferase in 30μL 25 mM Tris pH 7.5, 10 mM MnCl2. The mixture was incubated at 37° C. for 30 minutes. […] To release labeled glycans from a glycoprotein, the sample was first denatured by heating at 95° C. for two minutes in the presence of 0.5% SDS and 80 mM β-mercaptoethanol and then renatured with 1% Triton X-100, and finally treated with PNGase F at 10:1 mass ratio at 37° C. for 20 minutes. To release glycans from antibody, a sample was directly treated with Endo S at 10:1 mass ratio at 37° C. for 20 minutes. All samples were separated by sodium dodecyl sulfate—polyacrylamide gel electrophoresis (SDS-PAGE) at […]. For separating labeled glycoproteins and antibodies, 4-20% gradient SDS gel was used. For separating labeled free glycans, 15% or 17% gel was used. After separation, all gels were imaged using a FluorChem M imager (ProteinSimple, Bio-Techne, Minneapolis, MN). For glycoproteins samples, the gel was also imaged with traditional methods such as silver staining or trichloroethanol (TCE) staining.
For sLe^x synthesis, G0 was first converted to G2 by B4GalT1, then converted to A2[3] by ST3Gal4, and finally converted to A2[3]F2 (carrier of sLe^x) by FUT7 (FIG. 21A). During these steps, different amounts of enzymes, and multiple reaction times were applied to reveal the intermediate products.
Intermediate products are signs for the progress of each enzymatic step.

[3] = 5 μg asialofetuin, 0.2 μg enzyme, 30 μL, 37° C., 30 minutes
[4] = 5 μg asialofetuin, 0.2 μg enzyme, 30 μL, FIG. 4
[5] = 0.2 μg enzyme, 30 μL, 37° C., 30 minutes
[6] = 0.2 μg enzyme, 30 μL, 37° C., 30 minutes, listed as AF

With “cytidine monophosphate activated Cy5-conjugated sialic acid [CMP-Cy5-SA]” the “Donor amount at which maximal labeling by ST3Gal1 was achieved” value (ST3Gal1; [3]) was 37.0 pmol, the “Donor amount at which visible labeling on asialofetuin by ST3Gal1 was observed” value (ST3Gal1; [3]) was 4.11 pmol and the “Donor concentration for maximal labeling of asialofetuin by ST3Gal1” value (ST3Gal1; [4]) was 1.2 µM. For the same molecule, the Donor concentration needed for maximal labeling of asialofetuin by ST3Gal1 (ST3Gal1; FIG. 4) was 1.21 µM, the “Donor amount at which maximal labeling by ST6Gal1 was achieved” value (ST6Gal1; [3]) was 37.0 pmol and the “Donor amount at which visible labeling on asialofetuin by ST6Gal1 was observed” value (ST6Gal1; [3]) was 1.37 pmol. For the same molecule, the “Donor concentration for maximal labeling of asialofetuin by ST6Gal1” value (ST6Gal1; [4]) was 1.2 µM and the Donor concentration needed for maximal labeling of asialofetuin by ST6Gal1 (ST6Gal1; FIG. 4) was 1.21 µM.

In the case of “asialofetuin: desialylated fetal bovine fetuin, model glycoprotein from Sigma-Aldrich [reference compound]”, the “Lower limit of detection of acceptor protein labeled by ST3Gal1” value (from here on “Lower limit of detection … by ST3Gal1”) (ST3Gal1; [5]) is reported as 0.37 µg, the “Lower limit of detection … by ST3Gal1” value (ST3Gal1; [6]) is reported as “lower than 0.37 μg” and the “Lower limit of detection of acceptor protein labeled by ST6Gal1” value (ST6Gal1; [5]) is reported as 0.37 µg. The “Lower limit of detection of acceptor protein labeled by ST6Gal1” value (ST6Gal1; [6]) was “lower than 0.37 μg”.

In the case of “MUC1: recombinant mucin from R&D Systems, contains O-glycans [reference compound]”, the “Lower limit of detection … by ST3Gal1” value (ST3Gal1; [5]) is reported as “around 0.012 μg”.

B1: α-N-acetylgalactosaminide α-2,6-sialyltransferase 1 (protein, UniProt Q9NSC7 1-600, looked up)
Alpha-N-acetylgalactosaminide …: MRSCLWRCRHLSQGVQWSLLLAVLVFFLFALPSFIKEPQTKPSRHQRTENIKERSLQSLAKPKSQAPTRARRTTIYAEPVPENNALNTQTQPKAHTTGDRGKEANQAPPEEQDKVPHTAQRAAWKSPEKEKTMVNTLSPRGQDAGMASGRTEAQSWKSQDTKTTQGNGGQTRKLTASRTVSEKHQGKAATTAKTLIPKSQHRMLAPTGAVSTRTRQKGVTTAVIPPKEKKPQATPPPAPFQSPTTQRNQRLKAANFKSEPRWDFEEKYSFEIGGLQTTCPDSVKIKASKSLWLQKLFLPNLTLFLDSRHFNQSEWDRLEHFAPPFGFMELNYSLVQKVVTRFPPVPQQQLLLASLPAGSLRCITCAVVGNGGILNNSHMGQEIDSHDYVFRLSGALIKGYEQDVGTRTSFYGFTAFSLTQSLLILGNRGFKNVPLGKDVRYLHFLEGTRDYEWLEALLMNQTVMSKNLFWFRHRPQEAFREALHMDRYLLLHPDFLRYMKNRFLRSKTLDGAHWRIYRPTTGALLLLTALQLCDQVSAYGFITEGHERFSDHYYDTSWKRLIFYINHDFKLEREVWKRLHDEGIIRLYQRPGPGTAKAKN
notes: recombinant human sialyltransferase, O-GalNAc specific
For B1, the “Which of fetuin and asialofetuin the sialyltransferase labeled” value [1] was “labeled both fetuin and asialofetuin”.

B2: α-N-acetylgalactosaminide α-2,6-sialyltransferase 4 (protein, UniProt Q9H4F1 1-302, looked up)
Alpha-N-acetyl-neuraminyl-2,3- …: MKAPGRLVLIILCSVVFSAVYILLCCWAGLPLCLATCLDHHFPTGSRPTVPGPLHFSGYSSVPDGKPLVREPCRSCAVVSSSGQMLGSGLGAEIDSAECVFRMNQAPTVGFEADVGQRSTLRVVSHTSVPLLLRNYSHYFQKARDTLYMVWGQGRHMDRVLGGRTYRTLLQLTRMYPGLQVYTFTERMMAYCDQIFQDETGKNRRQSGSFLSTGWFTMILALELCEEIVVYGMVSDSYCREKSHPSVPYHYFEKGRLDECQMYLAHEQAPRSAHRFITEKAVFSRWAKKRPIVFAHPSWRTE
notes: as for B1
In the case of B2, the “Which of fetuin and asialofetuin the sialyltransferase labeled” value [1] is reported as “only labeled fetuin”.

B3: α-2,3-sialyltransferase 4 (protein, UniProt Q11206 1-333, looked up)
CMP-N-acetylneuraminate-beta-g …: MVSKSRWKLLAMLALVLVVMVWYSISREDRYIELFYFPIPEKKEPCLQGEAESKASKLFGNYSRDQPIFLRLEDYFWVKTPSAYELPYGTKGSEDLLLRVLAITSSSIPKNIQSLRCRRCVVVGNGHRLRNSSLGDAINKYDVVIRLNNAPVAGYEGDVGSKTTMRLFYPESAHFDPKVENNPDTLLVLVAFKAMDFHWIETILSDKKRVRKGFWKQPPLIWDVNPKQIRILNPFFMEIAADKLLSLPMQQPRKIKQKPTTGLLAITLALHLCDLVHIAGFGYPDAYNKKQTIHYYEQITLKSMAGSGHNVSQEALAIKRMLEMGAIKNLTSF
notes: recombinant human sialyltransferase, N-glycan specific
For B3, the “Which of fetuin and asialofetuin the sialyltransferase labeled” value [1] was “only labeled asialofetuin”, the “Time for the complete conversion of G2 to A2[3]” value ([2]; FIG. 21B) was 5 h and the “Activity based on reaction completion” value ([2]; substrate G2, completed product A2[3]) was 0.0084 pmol/min/µg. The Relative activity ([2]; substrate G2, product A2[3], normalized to FUT6 on sLe^x synthesis) was 0.06.

B4: α-2,3-sialyltransferase 2 (protein, UniProt Q16842 1-350, looked up)
CMP-N-acetylneuraminate-beta-g …: MKCSLRVWFLSVAFLLVFIMSLLFTYSHHSMATLPYLDSGALDGTHRVKLVPGYAGLQRLSKERLSGKSCACRRCMGDAGASDWFDSHFDGNISPVWTRENMDLPPDVQRWWMMLQPQFKSHNTNEVLEKLFQIVPGENPYRFRDPHQCRRCAVVGNSGNLRGSGYGQDVDGHNFIMRMNQAPTVGFEQDVGSRTTHHFMYPESAKNLPANVSFVLVPFKVLDLLWIASALSTGQIRFTYAPVKSFLRVDKEKVQIYNPAFFKYIHDRWTEHHGRYPSTGMLVLFFALHVCDEVNVYGFGADSRGNWHHYWENNRYAGEFRKTGVHDADFEAHIIDMLAKASKIEVYRGN
notes: recombinant human sialyltransferase, Core-1 O-glycan specific
For B4, the “Which of fetuin and asialofetuin the sialyltransferase labeled” value [1] was “primarily labeled asialofetuin, but also weakly labeled fetuin”.

B5: α-N-acetylgalactosaminide α-2,6-sialyltransferase 2 (protein, UniProt Q9UJ37 1-374, looked up)
Alpha-N-acetylgalactosaminide …: MGLPRGSFFWLLLLLTAACSGLLFALYFSAVQRYPGPAAGARDTTSFEAFFQSKASNSWTGKGQACRHLLHLAIQRHPHFRGLFNLSIPVLLWGDLFTPALWDRLSQHKAPYGWRGLSHQVIASTLSLLNGSESAKLFAPPRDTPPKCIRCAVVGNGGILNGSRQGPNIDAHDYVFRLNGAVIKGFERDVGTKTSFYGFTVNTMKNSLVSYWNLGFTSVPQGQDLQYIFIPSDIRDYVMLRSAILGVPVPEGLDKGDRPHAYFGPEASASKFKLLHPDFISYLTERFLKSKLINTHFGDLYMPSTGALMLLTALHTCDQVSAYGFITSNYWKFSDHYFERKMKPLIFYANHDLSLEAALWRDLHKAGILQLYQR
notes: sialyltransferase, O-GalNAc specific
With B5 the “Which of fetuin and asialofetuin the sialyltransferase labeled” value [1] was “labeled both fetuin and asialofetuin”.
